# Key:
# [1] = target: ΔImpα3, truncated importin α3 lacking the importin β-binding (IBB) domain (human); experiment: BLI; BLItz; His-tagged Impα3 or ΔImpα3 immobilised on His-tag biosensors at 0.3 µM; peptides 1-7 µM; manufacturer's buffer; 25 °C; pseudo-first-order plots; apparent
# [2] = target: human importin α3 (Impα3), intact (human); experiment: as above
# [3] = target: NLS1-PADI4 peptide (human); experiment: translational diffusion NMR (DOSY); 100 µM peptide; 100 mM sodium phosphate, pH 7.0; 10 °C; dioxane as reference
# [4] = target: human importin α3 (Impα3), intact (human); experiment: ITC; PADI4 or peptide (100 µM) in the syringe titrated into importin (10 µM) in the cell; 20 mM Tris pH 7.5, 5 mM TCEP, 150 mM NaCl, 5% glycerol; 25 °C; single-site model
# [5] = target: ΔImpα3, truncated importin α3 lacking the importin β-binding (IBB) domain (human); experiment: as above
# [6] = target: human importin α3 (Impα3), intact (human); experiment: as above; remark: listed apart in the source
# [7] = target: PADI4 (peptidyl-arginine deiminase 4), intact (human) (UniProt Q9UM07); experiment: other fluorescence titration; importin species 0-25 µM added to 3 µM PADI4; 20 mM Tris pH 7.5, 5 mM TCEP, 150 mM NaCl, 5% glycerol; 25 °C; fluorescence at 330 nm
# Chain of PADI4 (peptidyl-arginine deiminase 4), intact (human) (Q9UM07 whole entry): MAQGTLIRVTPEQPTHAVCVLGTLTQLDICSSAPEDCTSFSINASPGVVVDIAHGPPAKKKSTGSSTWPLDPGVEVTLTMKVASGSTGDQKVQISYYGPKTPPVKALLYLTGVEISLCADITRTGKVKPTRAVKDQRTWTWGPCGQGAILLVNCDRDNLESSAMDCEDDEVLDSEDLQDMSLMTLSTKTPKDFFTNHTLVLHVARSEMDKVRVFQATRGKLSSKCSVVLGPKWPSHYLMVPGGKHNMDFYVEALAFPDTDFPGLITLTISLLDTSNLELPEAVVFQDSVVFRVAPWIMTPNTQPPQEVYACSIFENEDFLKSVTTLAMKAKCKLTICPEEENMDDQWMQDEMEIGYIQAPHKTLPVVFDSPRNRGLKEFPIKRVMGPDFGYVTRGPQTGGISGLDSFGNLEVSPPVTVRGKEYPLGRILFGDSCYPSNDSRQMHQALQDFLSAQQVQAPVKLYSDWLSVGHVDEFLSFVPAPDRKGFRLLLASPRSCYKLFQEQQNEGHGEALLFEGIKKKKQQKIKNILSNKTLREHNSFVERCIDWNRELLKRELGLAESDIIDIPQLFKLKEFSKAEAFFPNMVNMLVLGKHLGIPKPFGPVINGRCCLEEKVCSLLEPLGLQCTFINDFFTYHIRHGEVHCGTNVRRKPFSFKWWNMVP
# Chain of PADI4 (peptidyl-arginine deiminase 4), intact (Q9UM07 whole entry): as above
Kd [1] [µM],koff [1] [s⁻¹],kon [1] [M⁻¹ s⁻¹],Kd [2] [µM],koff [2] [s⁻¹],kon [2] [M⁻¹ s⁻¹],stoichiometry N [3],Kd [4] [µM],Ka [5] [M⁻¹],Kd [5] [µM],dH [5] [kcal/mol],stoichiometry N [5],Ka [6] [M⁻¹],Kd [6] [µM],dH [6] [kcal/mol],stoichiometry N [6],Kd [7] [µM],Substance
4,0.046,11000,18,0.0685,3700,6,4.4,650000,1.5,-8.7,1.22,230000,4.3,-21.3,1.24,,NLS1-PADI4 peptide
,,,,,,,,780000,1.3,-38.4,0.84,210000,4.8,-65.5,0.97,,"PADI4 (peptidyl-arginine deiminase 4), intact (from UniProt Q9UM07 1-663) (enzyme)"
,,,,,,,,,,,,,,,,3.9,"human importin α3 (Impα3), intact (natural protein)"
,,,,,,,,,,,,,,,,6,"ΔImpα3, truncated importin α3 lacking the importin β-binding (IBB) domain (domain or fragment)"

# From PMC9319256, “Human Enzyme PADI4 Binds to the Nuclear Carrier Importin α3” (Cells, 2022)
